Source: patent US8034904B2, “Anti-IGF-I receptor antibody” (Immunogen Inc., priority 2002, dated 2011)

What was measured:
[1] = test system: A-673 human rhabdomyosarcoma/Ewing's sarcoma xenografts; assay: A-673 xenograft in mice; conditions: mouse, in vivo
[2] = test system: IGF-I receptor from cos-7 cells; assay: Immunoprecipitation of IGF-I receptor from cos-7 cells; type: binding; conditions: cos-7 cells (African green monkey)
Text: A Western blot of the EM164 antibody immunoprecipitate was detected using a rabbit polyclonal anti-IGF-I receptor beta chain (C-terminus) antibody (Santa Cruz Biotechnology) and a goat-anti-rabbit-IgG-antibody-horseradish peroxidase conjugate, followed by washes and enhanced chemiluminescence (ECL) detection.

MCF-7 cells = assay: Cell cycle analysis of MCF-7 cells (propidium iodide, flow cytometry); type: cell-based, human; conditions: IGF-I 20 ng/mL with or without EM164 20 μg/mL, 1 day
Description: The EM164 antibody caused growth arrest of cells in G0/G1 phase of cell cycle and abrogated the mitogenic effect of IGF-I. For cell cycle analysis, MCF-7 cells were treated with IGF-I (20 ng/mL) in the presence or absence of EM164 (20 μg/mL) for 1 day and then analyzed by propidium iodide staining and flow cytometry.

[3] = test system: Calu-6 non-small cell lung cancer cells; assay: Growth and survival of Calu-6 cells (MTT assay); type: cell-based, human
Description: (§1) Several human tumor cell lines were tested in serum-free conditions for their growth and survival response to IGF-I. These cell lines were treated with EM164 antibody in the presence of IGF-I, IGF-II, or serum, and their growth and survival responses were measured using an MTT assay after 2-4 days. Approximately 1500 cells were plated in a 96-well plate in regular medium with serum, which was replaced with serum-free medium the following day (either serum-free RPMI medium supplemented with transferrin and BSA, or phenol-red free medium as specified by Dufourny, B. et al., 1997, J. Biol. Chem., 272, 31163-31171). After one day of growth in serum-free medium, the cells were incubated with about 75 μL of 10 μg/mL antibody for 30 min.-3 h, followed by the addition of 25 μL of IGF-I (or IGF-II or serum) solution to obtain a final concentration of 10 ng/mL IGF-I, or 20 ng/mL IGF-II, or 0.04-10% serum. In some experiments, the cells were stimulated first with IGF-I for 15 min before the addition of EM164 antibody, or both IGF-I and EM164 antibody were added together. The cells were then allowed to grow for another 2-3 days. A solution of MTT (3-(4,5)-dimethylthiazol-2-yl)-2,5-diphenyltetrazolium bromide; 25 μL of a 5 mg/mL solution in PBS) was then added and the cells were returned to the incubator for 2-3 h. The medium was then removed and replaced by 100 μL DMSO, mixed, and the absorbance of the plate was measured at 545 nm.

MCF-7 (breast) cells = assay: Growth and survival of MCF-7 cells (MTT assay); type: cell-based, human
Description: as §1

[4] = test system: Human non-small cell lung cancer Calu-6 xenografts; type: in vivo
Text: Human non-small cell lung cancer Calu-6 xenografts were established in immunodeficient mice by subcutaneous injections of 1×10^7 Calu-6 cells.

[5] = test system: truncated IGF-I receptor alpha chain construct (residues 1-468 fused to 704-719, myc tag); assay: Binding to truncated IGF-I receptor alpha chain construct; set-up: species or system human
Text: The binding domain of EM164 antibody was further characterized using a truncated alpha chain construct, which comprised the cysteine rich domain flanked by L1 and L2 domains (residues 1-468) fused with the 16-mer-C-terminus piece (residues 704-719) and which was terminated by a C-terminus epitope tag. This smaller IGF-I receptor, which lacked residues 469-703, has been reported to bind IGF-I, although less tightly compared to the native full-length IGF-I receptor (Molina, L. et al., 2000, FEBS Letters, 467, 226-230; Kristensen, C. et al., 1999, J. Biol. Chem., 274, 37251-37356). Thus, a truncated IGF-I receptor alpha chain construct was prepared comprising residues 1-468 fused to the C-terminus piece that is residues 704-719 and flanked by a C-terminus myc epitope tag. A stable cell line which expressed this construct, and which also expresses the construct transiently in human embryonic kidney 293T cells, was constructed.

[6] = molecular target: biotinylated human IGF-I receptor; assay: ELISA binding titration (Kd) with biotinylated IGF-I receptor
Description: The wells were next washed with TBS-T buffer and incubated with goat-anti-mouse-IgGH+L-antibody-horseradish peroxidase conjugate (100 μL; 0.5 μg/mL in blocking buffer), followed by washes and detection using ABTS/H2O2 substrate at 405 nm. The value of Kd was estimated by non-linear regression for one-site binding.
A similar binding titration was carried out using the Fab fragment of EM164 antibody, prepared by papain digestion of the antibody as described by E. Harlow and D. Lane (“Using Antibodies: A Laboratory Manual”; 1999, Cold Spring Harbor Laboratory Press, New York).

Colo 205 (colon) cells = assay: Growth and survival of Colo 205 cells (MTT assay); type: cell-based, human
Description: as §1

human IGF-I receptor = assay: FACS binding to cells overexpressing human IGF-I receptor; conditions: EM164 50-100 nM
Description: Incubation of EM164 antibody (50-100 nM) in 100 μL cold FACS buffer (1 mg/mL BSA in Dulbecco's MEM medium) was performed using cells overexpressing IGF-I receptor and using cells overexpressing insulin receptor (2×10^5 cells/mL) in a round-bottom 96-well plate for 1 h. The cells were pelleted by centrifugation and washed with cold FACS buffer by gentle flicking, followed by incubation with goat-anti-mouse-IgG-antibody-FITC conjugate (100 μL; 10 μg/mL in FACS buffer) on ice for 1 h. The cells were pelleted, washed, and resuspended in 120 μL of 1% formaldehyde solution in PBS. The plate was analyzed using a FACSCalibur reader (BD Biosciences).

[7] = 5-10 μg/mL EM164, 10 ng/mL IGF-I
[8] = 5-10 μg/mL EM164, MTT or colony formation assay

Chain of biotinylated human IGF-I receptor (P08069 31-736 limits assumed): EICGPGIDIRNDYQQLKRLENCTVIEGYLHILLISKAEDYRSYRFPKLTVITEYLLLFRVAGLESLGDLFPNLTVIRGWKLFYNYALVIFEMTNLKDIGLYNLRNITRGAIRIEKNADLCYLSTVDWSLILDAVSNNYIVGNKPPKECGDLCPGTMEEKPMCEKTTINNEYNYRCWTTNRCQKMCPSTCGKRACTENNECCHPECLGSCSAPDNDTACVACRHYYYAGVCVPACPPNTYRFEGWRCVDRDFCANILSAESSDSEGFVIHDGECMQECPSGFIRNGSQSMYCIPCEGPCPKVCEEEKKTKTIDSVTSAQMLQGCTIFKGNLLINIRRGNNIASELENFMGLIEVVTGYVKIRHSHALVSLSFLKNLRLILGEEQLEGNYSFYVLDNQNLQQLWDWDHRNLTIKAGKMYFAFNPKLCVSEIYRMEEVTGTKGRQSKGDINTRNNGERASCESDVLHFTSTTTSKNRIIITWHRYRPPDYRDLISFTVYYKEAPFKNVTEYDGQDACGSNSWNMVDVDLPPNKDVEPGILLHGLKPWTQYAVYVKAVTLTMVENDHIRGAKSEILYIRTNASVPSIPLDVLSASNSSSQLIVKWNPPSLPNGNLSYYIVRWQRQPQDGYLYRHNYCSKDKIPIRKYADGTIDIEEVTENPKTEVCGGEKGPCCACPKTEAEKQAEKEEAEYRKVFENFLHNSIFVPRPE
Chain of biotinylated human IGF-I receptor (P08069 741-935 limits assumed): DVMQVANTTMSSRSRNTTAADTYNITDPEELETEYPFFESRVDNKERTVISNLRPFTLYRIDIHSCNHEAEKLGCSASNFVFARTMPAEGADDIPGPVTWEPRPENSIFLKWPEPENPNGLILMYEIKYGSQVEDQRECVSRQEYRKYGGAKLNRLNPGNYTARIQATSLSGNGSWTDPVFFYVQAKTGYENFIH
Chain of truncated IGF-I receptor alpha chain construct (residues 1-468 fused to 704-719, myc tag) (P08069 31-488 limits assumed): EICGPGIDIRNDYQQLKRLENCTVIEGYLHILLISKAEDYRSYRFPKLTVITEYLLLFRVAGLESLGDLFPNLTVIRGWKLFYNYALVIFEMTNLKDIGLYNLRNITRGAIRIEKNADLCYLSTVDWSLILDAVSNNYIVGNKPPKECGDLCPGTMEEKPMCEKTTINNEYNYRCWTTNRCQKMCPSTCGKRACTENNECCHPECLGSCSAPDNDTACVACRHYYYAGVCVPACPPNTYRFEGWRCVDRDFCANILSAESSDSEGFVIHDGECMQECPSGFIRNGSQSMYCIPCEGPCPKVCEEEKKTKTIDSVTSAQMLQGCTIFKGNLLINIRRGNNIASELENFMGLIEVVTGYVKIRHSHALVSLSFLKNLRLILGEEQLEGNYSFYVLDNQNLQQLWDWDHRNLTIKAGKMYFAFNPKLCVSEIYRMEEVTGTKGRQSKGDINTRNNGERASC

B1: EM164: murine anti-IGF-I receptor monoclonal antibody, IgG1 with kappa light chain, hybridoma ATCC PTA-4457; heavy SEQ ID NO:7, light SEQ ID NO:8 (antibody)
heavy: QVQLQQSGAELVKPGASVKLSCKASGYTFTSYWMHWVKQRPGQGLEWIGEINPSNGRTNYNEKFKRKATLTVDKSSSTAYMQLSSLTSEDSAVYYFARGRPDYYGSSKWYFDVWGAGTTVTVSS
light: DVLMTQTPLSLPVSLGDQASISCRSSQSIVHSNVNTYLEWYLQKPGQSPKLLIYKVSNRFSGVPDRFSGSGSGTDFTLRISRVEAEDLGIYYCFQGSHVPPTFGGGTKLEIKR
modifications: antibody heavy chain; antibody light chain
- growth of established A-673 xenografts [1]: significant growth delay
- binding to IGF-I receptor (immunoprecipitation) [2]: also bound
- cells in the G0/G1 phase (MCF-7 cells): 77%
- cells in the S phase (MCF-7 cells): 9%
- Inhibition by EM164 antibody of IGF-I-stimulated growth in serum-free medium [3, 7]: 85%
- % Inhibition by EM164 antibody of Growth/survival of cells in 1.25-10% serum [3, 8]: Yes
- inhibition of growth and survival of MCF-7 cells over a range of serum concentrations (MCF-7 (breast) cells; 0.04-10% serum, FIG. 8): equally effective
- IGF-1- or serum-stimulated growth and survival of MCF-7 cells (MCF-7 (breast) cells; FIGS. 7 and 8): strongly inhibited
- % Inhibition by EM164 antibody of Growth/survival of cells in 1.25-10% serum (MCF-7 (breast) cells; MCF-7 (breast), 5-10 μg/mL EM164): 85%
- Inhibition by EM164 antibody of IGF-I-stimulated growth in serum-free medium (MCF-7 (breast) cells; MCF-7 (breast), 5-10 μg/mL EM164, 10 ng/mL IGF-I): 100%
- inhibition of serum-stimulated growth (MCF-7 (breast) cells; MCF-7 cells, in the presence of serum): greater than 80%
- IGF-II-stimulated growth and survival of MCF-7 cells (MCF-7 (breast) cells; separate experiment): strongly inhibited
- toxicity based on weights of the mice ([4]; EM164 6 injections of 0.8 mg/mouse, i.v.): No toxicity
- growth of tumors ([4]; established 100 mm^3 Calu-6 xenografts, EM164 0.8 mg/mouse i.v. x6, taxol 15 mg/kg i.p. x5): significantly slowed
- binding to truncated IGF-I receptor alpha chain construct [5]: strong binding
- Kd ([6]; ELISA titration, non-linear regression for one-site binding, read-out: dissociation constant (Kd)): 0.1 nM
- koff rate ([6]; strong binding signals after prolonged 1-2 day washes): very slow
- Inhibition by EM164 antibody of IGF-I-stimulated growth in serum-free medium (Colo 205 (colon) cells; [7]): 50%
- % Inhibition by EM164 antibody of Growth/survival of cells in 1.25-10% serum (Colo 205 (colon) cells; [8]): Yes
- fluorescence shift (FACS) (human IGF-I receptor): strong fluorescence shift
